Values quoted from earlier work as cited in paper PMC8019513.
Like-named read-outs stand apart in the source and are kept apart here.

Tests used:
IL-8 (Homo sapiens) [1] = target: IL-8 (Homo sapiens) (UniProt P10145)
IL-8 (Homo sapiens) [2] = target: IL-8 (Homo sapiens) (UniProt P10145); remark: listed apart in the source

IL-8 (Homo sapiens), sequence (P10145 28-99): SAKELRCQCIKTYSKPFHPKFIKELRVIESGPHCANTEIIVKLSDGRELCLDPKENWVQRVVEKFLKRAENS
CXCR1, sequence (P25024 whole entry): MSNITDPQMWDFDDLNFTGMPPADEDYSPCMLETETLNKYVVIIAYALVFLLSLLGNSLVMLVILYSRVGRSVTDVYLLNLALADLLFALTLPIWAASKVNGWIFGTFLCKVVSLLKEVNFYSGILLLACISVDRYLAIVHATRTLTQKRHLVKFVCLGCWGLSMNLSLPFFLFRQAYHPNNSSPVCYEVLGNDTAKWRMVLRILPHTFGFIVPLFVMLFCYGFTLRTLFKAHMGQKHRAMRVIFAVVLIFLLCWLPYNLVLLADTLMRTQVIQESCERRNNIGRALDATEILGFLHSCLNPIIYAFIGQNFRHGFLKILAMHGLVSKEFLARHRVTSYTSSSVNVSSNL
CXCR2, sequence (P25025 whole entry): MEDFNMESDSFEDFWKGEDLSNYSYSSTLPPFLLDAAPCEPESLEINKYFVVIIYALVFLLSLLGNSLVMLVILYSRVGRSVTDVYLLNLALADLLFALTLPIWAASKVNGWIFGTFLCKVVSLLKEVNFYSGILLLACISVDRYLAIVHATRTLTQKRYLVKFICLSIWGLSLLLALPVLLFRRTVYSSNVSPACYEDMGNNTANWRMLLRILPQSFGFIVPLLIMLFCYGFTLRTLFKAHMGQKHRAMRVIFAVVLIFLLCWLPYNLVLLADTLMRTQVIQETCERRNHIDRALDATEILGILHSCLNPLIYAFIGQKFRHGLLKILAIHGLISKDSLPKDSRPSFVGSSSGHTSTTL

Kd (IL-8 (Homo sapiens) [1]) [nM] | Kd (IL-8 (Homo sapiens) [2]) [nM] | Substance
4 | – | CXCR2 (from UniProt P25025)
– | 4 | CXCR1 (from UniProt P25024)
